Consider 4 molecules from PMC6458997 (Molecular Cell, 2019).

The labels stand for the following.
B1: SPbeta AimP arbitrium peptide GMPRGA (peptide)
peptide: GMPRGA
notes: active (mature) arbitrium hexapeptide AimP of phage SPbeta, product of the yopL gene, which corresponds to phi3T aimP; also called GMPRGA peptide; SPbeta-specific arbitrium peptide; source: synthetic peptide, bought: ProteoGenix (95% purity)
B2: SPbeta AimR (arbitrium peptide receptor / transcription factor AimR of Bacillus subtilis phage SPbeta), full length (natural protein, Bacillus subtilis SPbeta phage, UniProt O64094 1-386, looked up)
chain: MELIRIAMKKDLENDNSLMNKWATVAGLKNPNPLYDFLNHDGKTFNEFSSIVNIVKSQYPDREYELMKDYCLNLDVKTKAARSALEYADANMFFEIEDVLIDSMISCSNMKSKEYGKVYKIHRELSNSVITEFEAVKRLGKLNIKTPEMNSFSRLLLLYHYLSTGNFSPMAQLIKQIDLSEISENMYIRNTYQTRVHVLMSNIKLNENSLEECREYSKKALESTNILRFQVFSYLTIGNSLLFSNYELAQENFLKGLSISVQNENYNMIFQQALCFLNNVWRKENKWINFESDSIMDLQEQAHCFINFNENSKAKEVLDKLDLLVHNDNELAMHYYLKGRLEQNKACFYSSIEYFKKSNDKFLIRLPLLELQKMGENQKLLELLLL
notes: AimR of Bacillus subtilis phage SPbeta, amplified from genomic DNA of Bacillus subtilis strain 168; full-length AimR (residues 1-386); Cloned in pLicSGC1 with N-terminal 6xHis tag and TEV site; digested with TEV protease; A selenomethionine derivative was used to phase the AimR-AimP structure; also called WT AimR; apo AimR; source: E. coli BL21 (DE3) RIL, purified (HisTrap FF, TEV digestion, …)
B3: SPbeta AimR D360A mutant (natural protein, Bacillus subtilis SPbeta phage)
chain: B2 chain with D360A
B4: SPbeta AimR N202A mutant (natural protein, Bacillus subtilis SPbeta phage)
chain: B2 chain with N202A

The target in series [1] is B2. Kind of series: thermal shift assay (differential scanning fluorimetry); 20 μM protein, 5x Sypro Orange, 20 mM Tris pH 8, 250 mM NaCl, heated 20 to 85°C; apparent Kd from 10 peptide concentrations from 0 to 2 μM, fitted to a single binding site per monomer. The settings on record: both partners purified.
Series [2] deals with the molecule itself. The experiment in a line: SEC-MALS; as the apo run, with 1 mM AimP peptide added to the injected sample and 1 μM peptide in the running buffer (25 mM Tris pH 8, 250 mM NaCl).
Series [3] deals with the molecule itself. Kind of series: SEC-MALS; 50 μL protein at 5 mg/mL on Superdex 200 HR 10/300 in 25 mM Tris pH 8, 250 mM NaCl; no peptide.

Substitutions are numbered along the chain they refer to. Names may count otherwise.

Take B1: in series [1], the Kd stood at 53.8 nM and the “increment in the melting temperature (Tm) of AimR” value is around 10 °C.
With B2, in series [2], the “stoichiometry N” value turned out to be 2.
As to B3, the “stoichiometry N” value in series [3] was 2.
On the same count and under the same terms, the result for B4 reads 2.
